The values below come from the supplement of paper PMC5998384.

In series [1] the test system is HeLa Kyoto. The experiment in a line: solubility in G1/S (NP-40 vs SDS abundance) (log2 ratio); higher = more soluble. The following applies: cell cycle stage: G1/S.
Series [2] deals with HeLa Kyoto. Briefly: solubility change mitosis vs G1/S (difference of NP-40 vs SDS log2 ratios) (log2 ratio difference); higher = more soluble in mitosis.
Series [3] concerns HeLa Kyoto. The experiment in a line: thermal stability score vs G1/S (z-score of summed log2 fold changes over temperatures); higher = more thermally stable than in G1/S.
[4] abbreviates: cell cycle stage: early G1 (4.5 h after nocodazole release).
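Throughout, for solubility change mitosis vs G1/S (difference of NP-40 vs SDS log2 ratios): synchronized HeLa Kyoto cells (double thymidine block for G1/S, nocodazole release for mitosis), protein amounts in NP-40 versus SDS lysates quantified by mass spectrometry, three biological replicates.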
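Throughout, for solubility in G1/S (NP-40 vs SDS abundance): HeLa Kyoto cells arrested at G1/S by double thymidine block, proteins quantified by TMT10plex mass spectrometry in mild NP-40 versus SDS extracts, three biological replicates.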
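Throughout, for thermal stability score vs G1/S (z-score of summed log2 fold changes over temperatures): synchronized HeLa Kyoto cells, proteins quantified by TMT10plex mass spectrometry, three biological replicates, mitosis taken 0.5 h after nocodazole release, G1/S directly after double thymidine block.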

On to “MDWQPDEQGLQQVLQLLKDSQSPNTATQRIVQDKLKQLNQFPDFNNYLIFVLTRLKSEDEPTRSLSGLILKNNVKAHYQSFPPPVADFIKQECLNNIGDASSLIRATIGILITTIASKGELQMWPELLPQLCNLLNSEDYNTCEGAFGALQKICEDSSELLDSDALNRPLNIMIPKFLQFFKHCSPKIRSHAIACVNQFIMDRAQALMDNIDTFIEHLFALAVDDDPEVRKNVCRALVMLLEVRIDRLIPHMHSIIQYMLQRTQDHDENVALEACEFWLTLAEQPICKEVLASHLVQLIPILVNGMKYSEIDIILLKGDVEEDEAVPDSEQDIKPRFHKSRTVTLPHEAERPDGSEDAEDDDDDDALSDWNLRKCSAAALDVLANVFREELLPHLLPLLKGLLFHPEWVVKESGILVLGAIAEGCMQGMVPYLPELIPHLIQCLSDKKALVRSIACWTLSRYAHWVVSQPPDMHLKPLMTELLKRILDGNKRVQEAACSAFATLEEEACTELVPYLSYILDTLVFAFGKYQHKNLLILYDAIGTLADSVGHHLNQPEYIQKLMPPLIQKWNELKDEDKDLFPLLECLSSVATALQSGFLPYCEPVYQRCVTLVQKTLAQAMMYTQHPEQYEAPDKDFMIVALDLLSGLAEGLGGHVEQLVARSNIMTLLFQCMQDSMPEVRQSSFALLGDLTKACFIHVKPCIAEFMPILGTNLNPEFISVCNNATWAIGEICMQMGAEMQPYVQMVLNNLVEIINRPNTPKTLLENTGRLTSPSAIPAITIGRLGYVCPQEVAPMLQQFIRPWCTSLRNIRDNEEKDSAFRGICMMIGVNPGGVVQDFIFFCDAVASWVSPKDDLRDMFYKILHGFKDQVGEDNWQQFSEQFPPLLKERLAAFYGV [TNPO2]”, for which the “solubility in G1/S (log2)” value in series [1] worked out at 0.0053. Also, in series [2], the “solubility change mitosis (log2)” value is -0.263. In addition, the thermal stability score was -0.161 in series [3] (setting [4]) and 0.756 in series [3] (cell cycle stage: mitosis).
For the sequence “MECPVMETGSLFTSGIKRHLKDKRISKTTKLNVSLASKIKTKILNNSSIFKISLKHNNRALAQALSREKENSRRITTEKMLLQKEVEKLNFENTFLRLKLNNLNKKLIDIEALMNNNLITAIEMSSLSEFHQSSFLLSASKKKRISKQCKLMRLPFARVPLTSNDDEDEDKEKMQCDNNIKSKTLPDIPSSGSTTQPLSTQDNSEVLFLKENNQNVYGLDDSEHISSIVDVPPRESHSHSDQSSKTSLMSEMRNAQSIGRRWEKPSPSNVTERKKRGSSWESNNLSADTPCATVLDKQHISSPELNCNNEINGHTNETNTEMQRNKQDLPGLSSESAREPNAECMNQIEDNDDFQLQKTVYDADMDLTASEVSKIVTVSTGIKKKSNKKTNEHGMKTFRKVKDSSSEKKRERSKRQFKNSSDVDIGEKIENRTERSDVLDGKRGAEDPGFIFNNEQLAQMNEQLAQVNELKKMTLQTGFEQGDRENVLCNKKEKRITNEQEETYSLSQSSGKFHQESKFDKGQNSLTCNKSKASRQTFVIHKLEKDNLLPNQKDKVTIYENLDVTNEFHTANLSTKDNGNLCDYGTHNILDLKKYVTDIQPSEQNESNINKLRKKVNRKTEIISGMNHMYEDNDKDVVHGLKKGNFFFKTQEDKEPISENIEVSKELQIPALSTRDNENQCDYRTQNVLGLQKQITNMYPVQQNESKVNKKLRQKVNRKTEIISEVNHLDNDKSIEYTVKSHSLFLTQKDKEIIPGNLEDPSEFETPALSTKDSGNLYDSEIQNVLGVKHGHDMQPACQNDSKIGKKPRLNVCQKSEIIPETNQIYENDNKGVHDLEKDNFFSLTPKDKETISENLQVTNEFQTVDLLIKDNGNLCDYDTQNILELKKYVTDRKSAEQNESKINKLRNKVNWKTEIISEMNQIYEDNDKDAHVQESYTKDLDFKVNKSKQKLECQDIINKHYMEVNSNEKESCDQILDSYKVVKKRKKESSCKAKNILTKAKNKLASQLTESSQTSISLESDLKHITSEADSDPGNPVELCKTQKQSTTTLNKKDLPFVEEIKEGECQVKKVNKMTSKSKKRKTSIDPSPESHEVMERILDSVQGKSTVSEQADKENNLENEKMVKNKPDFYTKAFRSLSEIHSPNIQDSSFDSVREGLVPLSVSSGKNVIIKENFALECSPAFQVSDDEHEKMNKMKFKVNRRTQKSGIGDRPLQDLSNTSFVSNNTAESENKSEDLSSERTSRRRRCTPFYFKEPSLRDKMRR [SGOL2]”, the “solubility in G1/S (log2)” value in series [1] is -0.383. The “solubility change mitosis (log2)” value in series [2] worked out at 0.191. Moreover, the thermal stability score in series [3] (setting [4]) stood at 0.746; in series [3] (cell cycle stage: mitosis), 2.18.
Consider “MEDPSEPDRLASADGGSPEEEEDGEREPLLPRIAWAHPRRGAPGSAVRLLDAAGEEGEAGDEELPLPPGDVGVSRSSSAELDRSRPAVSVTIGTSEMNAFLDDPEFADIMLRAEQAIEVGIFPERISQGSSGSYFVKDPKRKIIGVFKPKSEEPYGQLNPKWTKYVHKVCCPCCFGRGCLIPNQGYLSEAGAYLVDNKLHLSIVPKTKVVWLVSETFNYNAIDRAKSRGKKYALEKVPKVGRKFHRIGLPPKIGSFQLFVEGYKEAEYWLRKFEADPLPENIRKQFQSQFERLVILDYIIRNTDRGNDNWLVRYEKQKCEKEIDHKESKWIDDEEFLIKIAAIDNGLAFPFKHPDEWRAYPFHWAWLPQAKVPFSEEIRNLILPYISDMNFVQDLCEDLYELFKTDKGFDKATFESQMSVMRGQILNLTQALRDGKSPFQLVQIPCVIVERSQGGSQGRIVHLSNSFTQTVNCRKPFFSSW [PI4K2B]”, for which the “solubility in G1/S (log2)” value in series [1] turned out to be 0.198. For the same sequence, the “solubility change mitosis (log2)” value in series [2] was -0.206. The thermal stability score in series [3] (setting [4]) came to 0.385; in series [3] (cell cycle stage: mitosis), 0.874.
In the case of “MEEGKMDENEWGYHGEGNKSLVVAHAQRCVVLRFLKFPPNRKKTSEEIFQHLQNIVDFGKNVMKEFLGENYVHYGEVVQLPLEFVKQLCLKIQSERPESRCDKDLDTLSGYAMCLPNLTRLQTYRFAEHRPILCVEIKPKCGFIPFSSDVTHEMKHKVCRYCMHQHLKVATGKWKQISKYCPLDLYSGNKQRMHFALKSLLQEAQNNLKIFKNGELIYGCKDARSPVADWSELAHHLKPFFFPSNGLASGPHCTRAVIRELVHVITRVLLSGSDKGRAGTLSPGLGPQGPRVCEASPFSRSLRCQGKNTPERSGLPKGCLLYKTLQVQMLDLLDIEGLYPLYNRVERYLEEFPEERKTLQIDGPYDEAFYQKLLDLSTEDDGTVAFALTKVQQYRVAMTAKDCSIMIALSPCLQDASSDQRPVVPSSRSRFAFSVSVLDLDLKPYESIPHQYKLDGKIVNYYSKTVRAKDNAVMSTRFKESEDCTLVLHKV [IPPK]”, in series [1], the “solubility in G1/S (log2)” value was -0.275. Moreover, in series [2], the “solubility change mitosis (log2)” value is -0.0236. In addition, the thermal stability score in series [3] (setting [4]) was found to be 0.519; in series [3] (cell cycle stage: mitosis), 1.21.
